Experimental data published in US20140087995A1 (published 2014).
Numbered stars: 1 amine (or outer) side, 2 acyl side, 3 side chain; on linkers, the order of the positions; unused ones are H or OH. Bridge positions count the residues as written; N and C are the ends. Side chains are listed from the residue outwards. Ends that are not written are not given here. * marks the point of attachment. C20 diacid = O=C(O)CCCCCCCCCCCCCCCCCCC(=O)*; γGlu = O=C(O)[C@H](CCC(=O)[*:2])N[*:1]

T1: rat calcitonin receptor (rat, UniProt P32214 25-516)
T1 construct: whole, on cells; Membranes prepared from transiently transfected BHK tk'ts 13 cells (Assay VIII); also called rCTR; rCT
T1 sequence (looked up): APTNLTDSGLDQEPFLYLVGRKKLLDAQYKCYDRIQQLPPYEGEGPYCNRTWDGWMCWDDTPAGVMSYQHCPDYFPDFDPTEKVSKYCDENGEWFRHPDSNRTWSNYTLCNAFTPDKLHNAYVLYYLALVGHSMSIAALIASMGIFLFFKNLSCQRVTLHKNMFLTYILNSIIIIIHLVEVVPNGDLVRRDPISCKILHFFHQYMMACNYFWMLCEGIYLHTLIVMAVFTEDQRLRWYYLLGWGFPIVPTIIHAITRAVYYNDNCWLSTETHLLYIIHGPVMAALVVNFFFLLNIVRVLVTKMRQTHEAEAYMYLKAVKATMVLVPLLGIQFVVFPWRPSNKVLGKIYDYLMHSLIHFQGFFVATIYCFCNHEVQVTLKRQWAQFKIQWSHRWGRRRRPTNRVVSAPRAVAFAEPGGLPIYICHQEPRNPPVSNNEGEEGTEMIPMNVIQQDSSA

T2: rat amylin receptor (rat calcitonin receptor + rat RAMP 3) (rat, UniProt P32214 25-516; Q9JJ73 23-147)
T2 construct: whole, on cells; Membranes prepared from transiently transfected BHK tk'ts 13 cells (Assay VI); also called rAmylin-R; rAmylin
T2 sequence (looked up) 1: T1 sequence (looked up)
T2 sequence (looked up) 2: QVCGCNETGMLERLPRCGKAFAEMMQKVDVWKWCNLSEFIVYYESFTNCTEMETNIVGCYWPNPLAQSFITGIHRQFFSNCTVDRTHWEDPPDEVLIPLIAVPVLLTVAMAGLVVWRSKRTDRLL

T3: human calcitonin receptor (human, UniProt P30988 25-474)
T3 construct: whole, on cells; Membranes prepared from a stably transfected BHK cell line (Assay VII); also called hCTR; hCT
T3 sequence (looked up): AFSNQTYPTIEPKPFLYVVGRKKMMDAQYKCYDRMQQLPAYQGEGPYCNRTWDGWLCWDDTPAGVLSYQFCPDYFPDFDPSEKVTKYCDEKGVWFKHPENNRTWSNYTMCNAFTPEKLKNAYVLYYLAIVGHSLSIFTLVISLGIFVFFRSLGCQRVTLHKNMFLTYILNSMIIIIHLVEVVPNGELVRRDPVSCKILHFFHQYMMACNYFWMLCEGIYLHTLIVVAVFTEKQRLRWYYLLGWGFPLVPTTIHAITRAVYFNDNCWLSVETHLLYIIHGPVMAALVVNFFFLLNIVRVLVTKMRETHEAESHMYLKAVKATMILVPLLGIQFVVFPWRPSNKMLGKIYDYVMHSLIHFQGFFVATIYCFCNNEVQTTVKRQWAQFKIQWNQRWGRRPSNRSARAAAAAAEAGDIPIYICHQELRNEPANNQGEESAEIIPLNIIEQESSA

B1: N^ε1-[(4S)-4-carboxy-4-(19-carboxynonadecanoylamino)butanoyl]-[His14,Arg17,Pro21,Pro27,His34]-h-amylin (peptide)
peptide: K([γGlu-C20 diacid])CNTATCATQRLAHFLRHSSPNFGAIPSSTNVGHNTY-NH2
modifications: disulfide 2-7; N-terminus assumed
SMILES: CC[C@H](C)[C@H](NC(=O)[C@H](C)NC(=O)CNC(=O)[C@H](Cc1ccccc1)NC(=O)[C@H](CC(N)=O)NC(=O)[C@@H]1CCCN1C(=O)[C@H](CO)NC(=O)[C@H](CO)NC(=O)[C@H](Cc1c[nH]cn1)NC(=O)[C@H](CCCNC(=N)N)NC(=O)[C@H](CC(C)C)NC(=O)[C@H](Cc1ccccc1)NC(=O)[C@H](Cc1c[nH]cn1)NC(=O)[C@H](C)NC(=O)[C@H](CC(C)C)NC(=O)[C@H](CCCNC(=N)N)NC(=O)[C@H](CCC(N)=O)NC(=O)[C@@H](NC(=O)[C@H](C)NC(=O)[C@@H]1CSSC[C@H](NC(=O)[C@@H](N)CCCCNC(=O)CC[C@H](NC(=O)CCCCCCCCCCCCCCCCCCC(=O)O)C(=O)O)C(=O)N[C@@H](CC(N)=O)C(=O)N[C@@H]([C@@H](C)O)C(=O)N[C@@H](C)C(=O)N[C@@H]([C@@H](C)O)C(=O)N1)[C@@H](C)O)C(=O)N1CCC[C@H]1C(=O)N[C@@H](CO)C(=O)N[C@@H](CO)C(=O)N[C@H](C(=O)N[C@@H](CC(N)=O)C(=O)N[C@H](C(=O)NCC(=O)N[C@@H](Cc1c[nH]cn1)C(=O)N[C@@H](CC(N)=O)C(=O)N[C@H](C(=O)N[C@@H](Cc1ccc(O)cc1)C(N)=O)[C@@H](C)O)C(C)C)[C@@H](C)O
notes: Analogue of human amylin; also called compound 81
B2: N^ε1-[(4S)-4-carboxy-4-(19-carboxynonadecanoylamino)butanoyl]-[His14,Arg17,Pro21,Pro27,Pro31]-h-amylin (peptide)
peptide: K([γGlu-C20 diacid])CNTATCATQRLAHFLRHSSPNFGAIPSSTPVGSNTY-NH2
modifications: disulfide 2-7; N-terminus assumed
SMILES: CC[C@H](C)[C@H](NC(=O)[C@H](C)NC(=O)CNC(=O)[C@H](Cc1ccccc1)NC(=O)[C@H](CC(N)=O)NC(=O)[C@@H]1CCCN1C(=O)[C@H](CO)NC(=O)[C@H](CO)NC(=O)[C@H](Cc1c[nH]cn1)NC(=O)[C@H](CCCNC(=N)N)NC(=O)[C@H](CC(C)C)NC(=O)[C@H](Cc1ccccc1)NC(=O)[C@H](Cc1c[nH]cn1)NC(=O)[C@H](C)NC(=O)[C@H](CC(C)C)NC(=O)[C@H](CCCNC(=N)N)NC(=O)[C@H](CCC(N)=O)NC(=O)[C@@H](NC(=O)[C@H](C)NC(=O)[C@@H]1CSSC[C@H](NC(=O)[C@@H](N)CCCCNC(=O)CC[C@H](NC(=O)CCCCCCCCCCCCCCCCCCC(=O)O)C(=O)O)C(=O)N[C@@H](CC(N)=O)C(=O)N[C@@H]([C@@H](C)O)C(=O)N[C@@H](C)C(=O)N[C@@H]([C@@H](C)O)C(=O)N1)[C@@H](C)O)C(=O)N1CCC[C@H]1C(=O)N[C@@H](CO)C(=O)N[C@@H](CO)C(=O)N[C@H](C(=O)N1CCC[C@H]1C(=O)N[C@H](C(=O)NCC(=O)N[C@@H](CO)C(=O)N[C@@H](CC(N)=O)C(=O)N[C@H](C(=O)N[C@@H](Cc1ccc(O)cc1)C(N)=O)[C@@H](C)O)C(C)C)[C@@H](C)O
notes: Analogue of human amylin; also called compound 62
B3: N^ε1-[(4S)-4-carboxy-4-(19-carboxynonadecanoylamino)butanoyl]-[His14,Arg17,Pro21,Pro27,His35]-h-amylin (peptide)
peptide: K([γGlu-C20 diacid])CNTATCATQRLAHFLRHSSPNFGAIPSSTNVGSHTY-NH2
modifications: disulfide 2-7; N-terminus assumed
SMILES: CC[C@H](C)[C@H](NC(=O)[C@H](C)NC(=O)CNC(=O)[C@H](Cc1ccccc1)NC(=O)[C@H](CC(N)=O)NC(=O)[C@@H]1CCCN1C(=O)[C@H](CO)NC(=O)[C@H](CO)NC(=O)[C@H](Cc1c[nH]cn1)NC(=O)[C@H](CCCNC(=N)N)NC(=O)[C@H](CC(C)C)NC(=O)[C@H](Cc1ccccc1)NC(=O)[C@H](Cc1c[nH]cn1)NC(=O)[C@H](C)NC(=O)[C@H](CC(C)C)NC(=O)[C@H](CCCNC(=N)N)NC(=O)[C@H](CCC(N)=O)NC(=O)[C@@H](NC(=O)[C@H](C)NC(=O)[C@@H]1CSSC[C@H](NC(=O)[C@@H](N)CCCCNC(=O)CC[C@H](NC(=O)CCCCCCCCCCCCCCCCCCC(=O)O)C(=O)O)C(=O)N[C@@H](CC(N)=O)C(=O)N[C@@H]([C@@H](C)O)C(=O)N[C@@H](C)C(=O)N[C@@H]([C@@H](C)O)C(=O)N1)[C@@H](C)O)C(=O)N1CCC[C@H]1C(=O)N[C@@H](CO)C(=O)N[C@@H](CO)C(=O)N[C@H](C(=O)N[C@@H](CC(N)=O)C(=O)N[C@H](C(=O)NCC(=O)N[C@@H](CO)C(=O)N[C@@H](Cc1c[nH]cn1)C(=O)N[C@H](C(=O)N[C@@H](Cc1ccc(O)cc1)C(N)=O)[C@@H](C)O)C(C)C)[C@@H](C)O
notes: Analogue of human amylin; also called compound 66
B4: N^ε1-[(4S)-4-carboxy-4-(19-carboxynonadecanoylamino)butanoyl]-[His14,Arg17,Pro21,Pro27,Pro34]-h-amylin (peptide)
peptide: K([γGlu-C20 diacid])CNTATCATQRLAHFLRHSSPNFGAIPSSTNVGPNTY-NH2
modifications: disulfide 2-7; N-terminus assumed
SMILES: CC[C@H](C)[C@H](NC(=O)[C@H](C)NC(=O)CNC(=O)[C@H](Cc1ccccc1)NC(=O)[C@H](CC(N)=O)NC(=O)[C@@H]1CCCN1C(=O)[C@H](CO)NC(=O)[C@H](CO)NC(=O)[C@H](Cc1c[nH]cn1)NC(=O)[C@H](CCCNC(=N)N)NC(=O)[C@H](CC(C)C)NC(=O)[C@H](Cc1ccccc1)NC(=O)[C@H](Cc1c[nH]cn1)NC(=O)[C@H](C)NC(=O)[C@H](CC(C)C)NC(=O)[C@H](CCCNC(=N)N)NC(=O)[C@H](CCC(N)=O)NC(=O)[C@@H](NC(=O)[C@H](C)NC(=O)[C@@H]1CSSC[C@H](NC(=O)[C@@H](N)CCCCNC(=O)CC[C@H](NC(=O)CCCCCCCCCCCCCCCCCCC(=O)O)C(=O)O)C(=O)N[C@@H](CC(N)=O)C(=O)N[C@@H]([C@@H](C)O)C(=O)N[C@@H](C)C(=O)N[C@@H]([C@@H](C)O)C(=O)N1)[C@@H](C)O)C(=O)N1CCC[C@H]1C(=O)N[C@@H](CO)C(=O)N[C@@H](CO)C(=O)N[C@H](C(=O)N[C@@H](CC(N)=O)C(=O)N[C@H](C(=O)NCC(=O)N1CCC[C@H]1C(=O)N[C@@H](CC(N)=O)C(=O)N[C@H](C(=O)N[C@@H](Cc1ccc(O)cc1)C(N)=O)[C@@H](C)O)C(C)C)[C@@H](C)O
notes: Analogue of human amylin; also called compound 67
B5: N^ε1-[(4S)-4-carboxy-4-[[(4S)-4-carboxy-4-(19-carboxynonadecanoylamino)butanoyl]amino]butanoyl]-[Arg17,Pro21,Pro27,His34]-h-amylin (peptide)
peptide: K([γGlu-γGlu-C20 diacid])CNTATCATQRLANFLRHSSPNFGAIPSSTNVGHNTY-NH2
modifications: disulfide 2-7; N-terminus assumed
SMILES: CC[C@H](C)[C@H](NC(=O)[C@H](C)NC(=O)CNC(=O)[C@H](Cc1ccccc1)NC(=O)[C@H](CC(N)=O)NC(=O)[C@@H]1CCCN1C(=O)[C@H](CO)NC(=O)[C@H](CO)NC(=O)[C@H](Cc1c[nH]cn1)NC(=O)[C@H](CCCNC(=N)N)NC(=O)[C@H](CC(C)C)NC(=O)[C@H](Cc1ccccc1)NC(=O)[C@H](CC(N)=O)NC(=O)[C@H](C)NC(=O)[C@H](CC(C)C)NC(=O)[C@H](CCCNC(=N)N)NC(=O)[C@H](CCC(N)=O)NC(=O)[C@@H](NC(=O)[C@H](C)NC(=O)[C@@H]1CSSC[C@H](NC(=O)[C@@H](N)CCCCNC(=O)CC[C@H](NC(=O)CC[C@H](NC(=O)CCCCCCCCCCCCCCCCCCC(=O)O)C(=O)O)C(=O)O)C(=O)N[C@@H](CC(N)=O)C(=O)N[C@@H]([C@@H](C)O)C(=O)N[C@@H](C)C(=O)N[C@@H]([C@@H](C)O)C(=O)N1)[C@@H](C)O)C(=O)N1CCC[C@H]1C(=O)N[C@@H](CO)C(=O)N[C@@H](CO)C(=O)N[C@H](C(=O)N[C@@H](CC(N)=O)C(=O)N[C@H](C(=O)NCC(=O)N[C@@H](Cc1c[nH]cn1)C(=O)N[C@@H](CC(N)=O)C(=O)N[C@H](C(=O)N[C@@H](Cc1ccc(O)cc1)C(N)=O)[C@@H](C)O)C(C)C)[C@@H](C)O
notes: Analogue of human amylin; also called compound 86

biological target: T1, rat calcitonin receptor; experiment: SPA competition vs 125I-calcitonin, membranes of BHK cells with rat calcitonin receptor (Assay VIII)

IC50 [nM]	Binder
61.1	B1
18	B2
20.8	B3
14.7	B4
352	B5

biological target: T2, rat amylin receptor (rat calcitonin …); experiment: SPA competition vs 125I-rat amylin, membranes of BHK cells with rat calcitonin receptor + rat RAMP3 (Assay VI)

IC50 [nM]	Binder
1.42	B1
0.42	B2
0.581	B3
0.172	B4
2.8	B5

biological target: T1, rat calcitonin receptor; experiment: ratio of binding IC50s: rat calcitonin receptor / rat amylin receptor (reference)

Ratio rCT/rAmylin binding	Binder
42.9	B1
42.8	B2
35.8	B3
85.4	B4
126	B5

biological target: T3, human calcitonin receptor; experiment: ratio of binding IC50s: human calcitonin receptor / human amylin receptor (reference)
Method in brief: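 Competition binding by SPA uses membrane preparations (35 ng/μL final) in pH 7.4 Hepes buffer with 1 mM CaCl2 and 5 mM MgCl₂. Incubation lasts 120 min at 25° C, and IC₅₀ comes from one-site fitting.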

Ratio hCT/hAmylin binding	Binder
87.2	B1
63	B2
45.5	B3
51.6	B4
159	B5
